Measured values: US20140004106A1

Experiments:
[1] = molecular target: 28mer peptide of the CXCR5 antigen; experiment: Ag-ELISA; DS in PBS, release
[2] = molecular target: 28mer peptide of the CXCR5 antigen; experiment: Antigen-ELISA; PB 5 mM pH 6.50, T0
[3] = molecular target: 28mer peptide of the CXCR5 antigen; experiment: Antigen-ELISA; PB 10 mM pH 6.50, T0
[4] = molecular target: 28mer peptide of the CXCR5 antigen; experiment: Antigen-ELISA; Glycine 10 mM pH 7, T0
[5] = molecular target: 28mer peptide of the CXCR5 antigen; experiment: Antigen-ELISA; PBS 155 mM pH 7.50, T0
[6] = molecular target: 28mer peptide of the CXCR5 antigen; experiment: Antigen-ELISA; Arginine 10 mM pH 8, T0
[7] = molecular target: 28mer peptide of the CXCR5 antigen; experiment: Antigen-ELISA; Acetate 10 mM pH 5.00, T0
[8] = molecular target: 28mer peptide of the CXCR5 antigen; experiment: Antigen-ELISA; Citrate 10 mM pH 6.00, T0
[9] = molecular target: 28mer peptide of the CXCR5 antigen; experiment: Antigen-ELISA; Citrate 10 mM pH 6.50, T0
[10] = molecular target: 28mer peptide of the CXCR5 antigen; experiment: Antigen-ELISA; standard run with LA_09_004_1
[11] = molecular target: 28mer peptide of the CXCR5 antigen; experiment: Antigen-ELISA; standard run with LA_09_004_4
[12] = molecular target: 28mer peptide of the CXCR5 antigen; experiment: Antigen-ELISA; standard run with LA_09_004_8
[13] = molecular target: 28mer peptide of the CXCR5 antigen; experiment: Antigen-ELISA; citrate 10 mM prototype A, T0
[14] = molecular target: 28mer peptide of the CXCR5 antigen; experiment: Antigen-ELISA; citrate 10 mM prototype C, T0
[15] = molecular target: 28mer peptide of the CXCR5 antigen; experiment: Antigen-ELISA; acetate 10 mM prototype B, T0
[16] = molecular target: 28mer peptide of the CXCR5 antigen; experiment: Antigen-ELISA; acetate 10 mM prototype D, T0
[17] = molecular target: 28mer peptide of the CXCR5 antigen; experiment: Antigen-ELISA; standard run with LA_09_27A, T0
[18] = molecular target: 28mer peptide of the CXCR5 antigen; experiment: Antigen-ELISA; standard run with LA_09_27B, T0
[19] = molecular target: 28mer peptide of the CXCR5 antigen; experiment: Antigen-ELISA; standard run with LA_09_27C, T0
[20] = molecular target: 28mer peptide of the CXCR5 antigen; experiment: Antigen-ELISA; standard run with LA_09_29A, T0
[21] = molecular target: 28mer peptide of the CXCR5 antigen; experiment: Antigen-ELISA; standard run with LA_09_29D, T0
[22] = molecular target: 28mer peptide of the CXCR5 antigen; experiment: Potency (Antigen ELISA); stored -20°C, 1 month
[23] = molecular target: 28mer peptide of the CXCR5 antigen; experiment: Potency (Antigen ELISA); stored -20°C, initial
[24] = molecular target: 28mer peptide of the CXCR5 antigen; experiment: Potency (Antigen ELISA); stored +25°C, 1 month
[25] = molecular target: 28mer peptide of the CXCR5 antigen; experiment: Potency (Antigen ELISA); stored -20°C, 6 months
[26] = molecular target: 28mer peptide of the CXCR5 antigen; experiment: Potency (Antigen ELISA); stored +25°C, 3 months
[27] = molecular target: 28mer peptide of the CXCR5 antigen; experiment: Potency (Antigen ELISA); stored -20°C, 12 months
[28] = molecular target: 28mer peptide of the CXCR5 antigen; experiment: Potency (Antigen ELISA); stored -20°C, 18 months
[29] = molecular target: 28mer peptide of the CXCR5 antigen; experiment: Antigen-ELISA; PBS 155 mM, polypropylene, 24 h +40°C
[30] = molecular target: 28mer peptide of the CXCR5 antigen; experiment: Antigen-ELISA; PBS 155 mM pH 7.00, after 1 week at +40°C
[31] = molecular target: 28mer peptide of the CXCR5 antigen; experiment: Antigen-ELISA; Arginine 10 mM pH 6, after 1 week at +40°C
[32] = molecular target: 28mer peptide of the CXCR5 antigen; experiment: ELISA potency (binding); 100 mg/mL, Arginine (30), T zero
[33] = molecular target: 28mer peptide of the CXCR5 antigen; experiment: Antigen-ELISA; Histidine 10 mM pH 6, after 1 week at +40°C
[34] = molecular target: 28mer peptide of the CXCR5 antigen; experiment: Antigen-ELISA; Histidine 10 mM pH 5.5, after 1 week at +40°C
[35] = molecular target: 28mer peptide of the CXCR5 antigen; experiment: Antigen-ELISA; Succinate 10 mM pH 6.00, after 1 week at +40°C
[36] = molecular target: 28mer peptide of the CXCR5 antigen; experiment: Antigen-ELISA; PBS 155 mM, polyethylene low density, 24 h +40°C
[37] = molecular target: 28mer peptide of the CXCR5 antigen; experiment: Antigen-ELISA; PBS 155 mM, clear glass type I + V2A piece, 24 h
[38] = molecular target: 28mer peptide of the CXCR5 antigen; experiment: Antigen-ELISA; PBS 155 mM, polyethylene high density, 24 h +40°C
[39] = molecular target: 28mer peptide of the CXCR5 antigen; experiment: ELISA potency (binding); 100 mg/mL, Glycine (20), 7 days at 40°C
[40] = molecular target: 28mer peptide of the CXCR5 antigen; experiment: Antigen-ELISA; standard, repeated values in the 3 weeks -20°C
[41] = molecular target: 28mer peptide of the CXCR5 antigen; experiment: ELISA potency (binding); 100 mg/mL, Arginine (30), 7 days at 40°C
[42] = molecular target: 28mer peptide of the CXCR5 antigen; experiment: ELISA potency (binding); 100 mg/mL, Arginine (20) + NaCl (2), T zero
[43] = molecular target: 28mer peptide of the CXCR5 antigen; experiment: Antigen-ELISA; PB 5 mM pH 6.50, after mechanical stress 350 rpm 2.5 h
[44] = molecular target: 28mer peptide of the CXCR5 antigen; experiment: ELISA potency (binding); 100 mg/mL, Sucrose (60) + NaCl (2), 7 days at 40°C
[45] = molecular target: 28mer peptide of the CXCR5 antigen; experiment: Antigen-ELISA; acetate 10 mM prototype A, repeated values in the 3 weeks -20°C

B1: Lead CXCR5 Antibody (humanized IgG4 anti-CXCR5 antibody) (antibody, V domains shown)
VH: QVQLKESGPGLVAPSESLSITCTVSGFSLIDYGVNWIRQPPGKGLEWLGVIWGDGTTYYNPSLKSRLSISKDNSKSQVFLKVTSLTTDDTAMYYCARIVYWGQGTLVTVSA
VL: DIVMTQAAPSVAVTPGASVSISCRSSKSLLHSSGKTYLYWFLQRPGQSPQLLIYRLSSLASGVPDRFSGSGSGTAFTLRISRVEAEDVGVYYCMQHLEYPYTFGGGTKLEIKR
[1]
  EC50 %: 100%
[2]
  EC50 %: 110%
[3]
  EC50 %: 105%
[4]
  EC50 %: 127%
[5]
  EC50 %: 81%
[6]
  EC50 %: 121%
[7]
  EC50 %: 147%
[8]
  EC50 %: 52%
[9]
  EC50 %: 59%
[10]
  EC50 %: 100%
[11]
  EC50 %: 100%
[12]
  EC50 %: 100%
[13]
  EC50 %: 112%
[14]
  EC50 %: 104%
[15]
  EC50 %: 112%
[16]
  EC50 %: 91%
[17]
  EC50 %: 100%
[18]
  EC50 %: 100%
[19]
  EC50 %: 100%
[20]
  EC50 %: 100%
[21]
  EC50 %: 100%
[22]
  EC50 value (in comparison to reference): 107%
[23]
  EC50 value (in comparison to reference): 75%
[24]
  EC50 value (in comparison to reference): 121%
[25]
  EC50 value (in comparison to reference): 96%
[26]
  EC50 value (in comparison to reference): 96%
[27]
  EC50 value (in comparison to reference): 96%
[28]
  EC50 value (in comparison to reference): 127%
[29]
  EC50 %: 107%
[30]
  EC50 %: 97%
[31]
  EC50 %: 99%
[32]
  rel. potency [%]: 160%
[33]
  EC50 %: 77%
[34]
  EC50 %: 81%
[35]
  EC50 %: 126%
[36]
  EC50 %: 104%
[37]
  EC50 %: 80.8%
[38]
  EC50 %: 157%
[39]
  rel. potency [%]: 180%
[40]
  EC50 %: 100%
[41]
  rel. potency [%]: 143%
[42]
  rel. potency [%]: 144%
[43]
  EC50 %: 150%
[44]
  rel. potency [%]: 188%
[45]
  EC50 %: 112%
